{
  "source": "patent US8580932B2",
  "about": "“Method of thermostabilization of a protein and/or stabilization towards organic solvents” (Masarykova Univerzita, priority 2011, dated 2013)",
  "molecules": {"B1": {"name": "DhaA: haloalkane dehalogenase DhaA from Rhodococcus rhodochrous NCIMB13064 (protein, UniProt P0A3G2 1-293, looked up)", "Haloalkane dehalogenase": "MSEIGTGFPFDPHYVEVLGERMHYVDVGPRDGTPVLFLHGNPTSSYLWRNIIPHVAPSHRCIAPDLIGMGKSDKPDLDYFFDDHVRYLDAFIEALGLEEVVLVIHDWGSALGFHWAKRNPERVKGIACMEFIRPIPTWDEWPEFARETFQAFRTADVGRELIIDQNAFIEGALPKCVVRPLTEVEMDHYREPFLKPVDREPLWRFPNELPIAGEPANIVALVEAYMNWLHQSPVPKLLFWGTPGVLIPPAEAARLAESLPNCKTVDIGPGLHYLQEDNPDLIGSEIARWLPAL"}, "B2": {"name": "L177P: LinB variant in the position 177 (protein, UniProt D4Z2G1 2-296, looked up, variant L177P)", "Haloalkane dehalogenase": "SLGAKPFGEKKFIEIKGRRMAYIDEGTGDPILFQHGNPTSSYLWRNIMPHCAGLGRLIACDLIGMGDSDKLDPSGPERYAYAEHRDYLDALWEALDLGDRVVLVVHDWGSALGFDWARRHRERVQGIAYMEAIAMPIEWADFPEQDRDLFQAFRSQAGEELVLQDNVFVEQVLPGPILRPLSEAEMAAYREPFLAAGEARRPTLSWPRQIPIAGTPADVVAIARDYAGWLSESPIPKLFINAEPGALTTGRMRDFCRTWPNQTEITVAGAHFIQEDSPDEIGAAIAAFVRRLRPA"}, "B3": {"name": "L177K: LinB variant in the position 177 (protein, UniProt D4Z2G1 2-296, looked up, variant L177K)", "Haloalkane dehalogenase": "B2 Haloalkane dehalogenase with P176K"}, "B4": {"name": "L177Q: LinB variant in the position 177 (protein, UniProt D4Z2G1 2-296, looked up, variant L177Q)", "Haloalkane dehalogenase": "B2 Haloalkane dehalogenase with P176Q"}, "B5": {"name": "L177H: LinB variant in the position 177 (protein, UniProt D4Z2G1 2-296, looked up, variant L177H)", "Haloalkane dehalogenase": "B2 Haloalkane dehalogenase with P176H"}, "B6": {"name": "L177M: LinB variant in the position 177 (protein, UniProt D4Z2G1 2-296, looked up, variant L177M)", "Haloalkane dehalogenase": "B2 Haloalkane dehalogenase with P176M"}},
  "key": {"[1]": {"experiment": "Steady-state kinetics of haloalkane dehalogenases by isothermal titration calorimetry", "type": "biochemical", "conditions": "pH 8.6, 25° C.; for ar (relative activity): percentage of specific activity in glycine buffer", "description": "Substrate to product conversion by the action of enzymes was carried out using VP-ITC isothermal titration microcalorimeter (MicroCal), by single injection method. The substrate 1-iodohexane was dissolved in 100 mM glycine buffer (pH 8.6) containing appropriate volume of organic solvent and equilibrated at 25° C. in the sample cell (1.4 ml). The reaction was initiated by injecting of 10 μl of 1 mg/ml enzyme solution dialyzed overnight against the same solution as used for dissolving of the substrate. The heat flow (μcal s^−1) was recorded as a function of time. The reaction rate was calculated according to the equation:\n[formula] where V is the volume of the sample cell, [S] is substrate concentration and ΔH is the enthalpy of the conversion of substrate to product and was determined experimentally by titration of the substrate into the sample cell containing the enzyme. The evaluated rate of substrate depletion (−d[S]/dt), and corresponding substrate concentration were fitted by nonlinear regression to kinetic models by using Origin 6.1 software (OriginLab, Massachusetts, USA). Results"}, "[2]": {"experiment": "Haloalkane dehalogenase activity assay in the presence of organic solvents", "type": "biochemical", "conditions": "100 mM glycine buffer (pH 8.6), 37° C., 1-iodohexane (FIG. 12)", "description": "Haloalkane dehalogenase activity was assayed at 37° C. by a previously described method (Iwasaki, I., Utsumi, S., and Ozawa, T. 1952: New colorimetric determination of chloride using mercuric thiocyanate and ferric ion. Bulletin of the Chemical Society of Japan 25: 226-226). The released halide ions were analysed spectrophotometrically at 460 nm after a reaction with mercuric thiocyanate and ferric ammonium sulphate. The reaction mixture was composed of 100 mM glycine buffer (pH 8.6), 2 μl of substrate 1-iodohexane and appropriate amount of organic solvent. Solvent concentration was increased until the enzyme activity dropped below fifty per cent. The reaction was initiated by the addition of enzyme in a final concentration of 0.15 μM. The reaction was monitored by withdrawing samples at periodical intervals from the reaction mixture. The samples were immediately mixed with 35% nitric acid to terminate the reaction. Dehalogenation activity was quantified as a rate of product formation in time. Each activity was measured in 3-5 independent replicates and expressed as mean values of relative activity, represented percentage of activity in pure buffer."}, "[3]": {"experiment": "Kinetic half-life assay of DhaA variants in 40% (v/v) DMSO", "type": "biochemical, Rhodococcus rhodochrous NCIMB 13064", "conditions": "60 mM glycine buffer (pH 8.6), 37° C."}, "[4]": {"conditions": "12 different substrates; cited from earlier work"}, "[5]": {"type": "physicochemical, Sphingobium japonicum UT26", "conditions": "for ΔTm: compared to the wild type LinB; for Tm: ellipticity at 222 nm, 20 to 80° C., 1° C./min, 50 mM potassium phosphate buffer (pH 7.5)", "description": "Circular dichroism spectra were recorded at 20° C. using a Jasco J-810 spectrometer (Jasco, Tokyo, Japan) coupled with Peltier temperature controller. Data were collected from 185 to 260 nm, at 100 nm/min, 1 s response time and 2 nm bandwidth using a 0.1 cm quartz cuvette containing the enzyme variant in 50 mM potassium phosphate buffer (pH 7.5). Each spectrum shown is the average of ten individual scans and was corrected for absorbance caused by the buffer. CD data were expressed in terms of the mean residue ellipticity (ΘMRE) using the equation: […]\nThermal unfolding of LinB enzyme variants was followed by monitoring the ellipticity at 222 nm over the temperature range of 20 to 80° C., with a resolution 0.1° C., at a heating rate 1° C./min. Recorded thermal denaturation curves were roughly normalized to represent signal changes between approximately 1 and 0 and fitted to sigmoidal curves using software Origin 6.1 (OriginLab, Massachusetts, USA). The melting temperatures (Tm) were evaluated as a midpoint of the normalized thermal transition."}, "[6]": {"conditions": "formamide 5% (v/v), 1-iodohexane"}},
  "note": "Residue numbers refer to the chain shown, from its start. Names and notes keep the numbering of the source.",
  "data": [
    {"molecule": "B1", "values": [
      {"measurement": "K0.5 (concentration of substrate at half maximal velocity)", "setting": "[1]; [6]", "value": 4.2, "unit": "µM"},
      {"measurement": "Ksi (substrate inhibition constant)", "setting": "[1]; [6]", "value": 0.6, "unit": "mM"},
      {"measurement": "nH (Hill coefficient)", "setting": "[1]; [6]", "value": 2.0},
      {"measurement": "ar (relative activity)", "setting": "[1]; formamide 5% (v/v)", "value": 130, "unit": "%"},
      {"measurement": "ar (relative activity)", "setting": "[1]; glycine buffer (reference)", "value": 100, "unit": "%"},
      {"measurement": "K0.5 (concentration of substrate at half maximal velocity)", "setting": "[1]; glycine buffer, 1-iodohexane", "value": 8.5, "unit": "µM"},
      {"measurement": "Ksi (substrate inhibition constant)", "setting": "[1]; glycine buffer, 1-iodohexane", "value": 1.1, "unit": "mM"},
      {"measurement": "kcat", "setting": "[1]; glycine buffer, 1-iodohexane", "value": 0.9, "unit": "s⁻¹"},
      {"measurement": "nH (Hill coefficient)", "setting": "[1]; glycine buffer, 1-iodohexane", "value": 2.0},
      {"measurement": "Specific activity in glycine buffer", "setting": "[2]", "value": "0.0355 μmol s^−1 mg^−1 of enzyme"},
      {"measurement": "deactivation in the presence of DMSO", "setting": "[3]", "value": "proceeded rapidly"}
    ]},
    {"molecule": "B2", "values": [
      {"measurement": "activity with tested substrates", "setting": "[4]", "value": "did not show activity with any of tested substrates"}
    ]},
    {"molecule": "B3", "values": [
      {"measurement": "thermal stability compared to the wild type enzyme", "setting": "[5]", "value": "improvement in thermal stability"},
      {"measurement": "ΔTm", "setting": "[5]", "value": 3.0, "unit": "°C"},
      {"measurement": "Tm", "setting": "[5]", "value": "51.01 ± 0.54", "unit": "°C"}
    ]},
    {"molecule": "B4", "values": [
      {"measurement": "ΔTm", "setting": "[5]", "value": 0.0, "unit": "°C"},
      {"measurement": "Tm", "setting": "[5]", "value": "48.08 ± 0.17", "unit": "°C"}
    ]},
    {"molecule": "B5", "values": [
      {"measurement": "ΔTm", "setting": "[5]", "value": 0.8, "unit": "°C"},
      {"measurement": "Tm", "setting": "[5]", "value": "48.85 ± 0.28", "unit": "°C"}
    ]},
    {"molecule": "B6", "values": [
      {"measurement": "ΔTm", "setting": "[5]", "value": "−0.3", "unit": "°C"},
      {"measurement": "Tm", "setting": "[5]", "value": "47.78 ± 0.17", "unit": "°C"}
    ]}
  ]
}
